The record followed here is patent US20210070882A1 (Hoffmann-La Roche, published 2021).

Experiment [1] has as its target T1, human CD19 (human, UniProt P15391 20-556).
T1 sequence (looked up): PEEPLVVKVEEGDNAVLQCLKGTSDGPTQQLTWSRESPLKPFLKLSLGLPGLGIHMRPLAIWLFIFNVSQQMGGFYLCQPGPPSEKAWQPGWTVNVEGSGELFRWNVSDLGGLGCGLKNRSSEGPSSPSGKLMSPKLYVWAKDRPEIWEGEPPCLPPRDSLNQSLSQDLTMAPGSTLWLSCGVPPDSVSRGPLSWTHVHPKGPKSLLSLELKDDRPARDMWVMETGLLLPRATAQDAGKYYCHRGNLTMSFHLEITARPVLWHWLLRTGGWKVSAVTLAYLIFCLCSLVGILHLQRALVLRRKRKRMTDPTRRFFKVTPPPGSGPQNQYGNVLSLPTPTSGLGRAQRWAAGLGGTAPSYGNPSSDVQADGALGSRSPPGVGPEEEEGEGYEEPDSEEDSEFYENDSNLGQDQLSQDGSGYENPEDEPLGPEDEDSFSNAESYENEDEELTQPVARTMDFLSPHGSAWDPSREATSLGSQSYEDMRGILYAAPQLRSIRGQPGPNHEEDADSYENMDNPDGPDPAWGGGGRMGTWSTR
Kind of experiment: cell-based or functional assay.

Experiment [2] concerns the target T1, human CD19. The experiment in a line: cell-based or functional assay. The source holds these as a separate data set.
Experiment [3] addresses T1, human CD19. Kind of experiment: cell-based or functional assay. This is another data set of the same source.
Experiment [4] has as its target T1, human CD19. Kind of experiment: cell-based or functional assay. The source holds these as a separate data set.
Experiment [5] addresses T1, human CD19. Kind of experiment: flow cytometry on CD19-expressing Raji cells. The procedure:
The binding of CD19 IgGs and CD19 TCBs to human CD19- and CD3-expressing target cells was tested using CD19-expressing Burkitt's lymphoma cells (Raji) and CD3-expressing immortalized T lymphocyte line (Jurkat). Briefly, cells were harvested, counted, checked for viability and resuspended at 2×10⁶ cells/ml in FACS buffer (100 μl PBS 0.1% BSA). 100 μl of cell suspension (containing 0.2×10⁶ cells) were incubated in round-bottom 96-well plate for 30 min at 4° C. with increasing concentrations of the CD19 IgGs and CD19 TCBs (10 pM-200 nM), washed twice with cold PBS 0.1% BSA, re-incubated for further 30 min at 4° C. with the PE-conjugated AffiniPure F(ab′)2 Fragment goat anti-human IgG Fcg Fragment Specific secondary antibody (Jackson Immuno Research Lab PE #109-116-170), washed twice with cold PBS 0.1% BSA and immediately analyzed by FACS using a FACS Cantoll (Software FACS Diva) by gating live, DAPI-negative, cells.

Positions count from the first letter of the chain named. “And” between values parts separate entries of the source, which are not always exact repeats. Equal values may be shown once. Read-outs that look alike come from different tables or passages of the source.

B1: Molecule E: 1+1 IgG CrossFab, inverted, without charge modifications (CH1/CL exchange in CD3 binder, parental murine CD19 binder 8B8) (bispecific antibody)
chain 1: not shown
chain 2: QAVVTQEPSLTVSPGGTVTLTCGSSTGAVTTSNYANWVQEKPGQAFRGLIGGTNKRAPGTPARFSGSLLGGKAALTLSGAQPEDEAEYYCALWYSNLWVFGGGTKLTVLSSASTKGPSVFPLAPSSKSTSGGTAALGCLVKDYFPEPVTVSWNSGALTSGVHTFPAVLQSSGLYSLSSVVTVPSSSLGTQTYICNVNHKPSNTKVDKKVEPKSC
chain 3: DAVMTQTPLSLPVSLGDQASISCRSSQSLENSNGNTYLNWYLQKPGQSPQLLIYRVSKRFSGVLDRFSGSGSGTDFTLKISRVEAEDLGVYFCLQLTHVPYTFGGGTKLEIKRTVAAPSVFIFPPSDEQLKSGTASVVCLLNNFYPREAKVQWKVDNALQSGNSQESVTEQDSKDSTYSLSSTLTLSKADYEKHKVYACEVTHQGLSSPVTKSFNRGEC
chain 4: DKTHTCPPCPAPEAAGGPSVFLFPPKPKDTLMISRTPEVTCVVVDVSHEDPEVKFNWYVDGVEVHNAKTKPREEQYNSTYRVVSVLTVLHQDWLNGKEYKCKVSNKALGAPIEKTISKAKGQPREPQVCTLPPSRDELTKNQVSLSCAVKGFYPSDIAVEWESNGQPENNYKTTPPVLDSDGSFFLVSKLTVDKSRWQQGNVFSCSVMHEALHNHYTQKSLSLSP
Regarding B1, in experiment [1], the “T cell activation EC50 upon lysis of Z-138 cells, CD25/CD4” value was 3.55 pM; the “T cell activation EC50 upon lysis of Z-138 cells, CD25/CD8” value came out at 3.31 pM; the “T cell activation EC50 upon lysis of Z-138 cells, CD69/CD4” value was found to be 1.04 pM; the “T cell activation EC50 upon lysis of Z-138 cells, CD69/CD8” value worked out at 1.71 pM. Moreover, in experiment [1], the “T cell activation EC50 upon lysis of Z-138 cells, CD107/CD4” value came to 2.09 pM and the “T cell activation EC50 upon lysis of Z-138 cells, CD107/CD8” value came out at 2.76 pM. In experiment [2], the “Tumor cell lysis Z-138 cells (21 h), EC50” value was determined as 0.62 ng/mL and the “Tumor cell lysis Z-138 cells (21 h), EC50 (pM)” value was determined as 4.2 pM.

B2: Molecule A: 2+1 IgG CrossFab, inverted, with charge modifications (VH/VL exchange in CD3 binder, charge modification in CD19 binder, parental murine CD19 … (bispecific antibody)
chain 1: EVQLQQSGPELVKPGASVKMACKASGYTFTDYIMHWVKQKTGQGLEWIGYINPYNDGSKYTEKFNGKATLTSDKSSITAYMELSSLTSEDSAVYYCARGTYYYGSALFDYWGQGTTLTVSSASTKGPSVFPLAPSSKSTSGGTAALGCLVEDYFPEPVTVSWNSGALTSGVHTFPAVLQSSGLYSLSSVVTVPSSSLGTQTYICNVNHKPSNTKVDEKVEPKSCDKTHTCPPCPAPEAAGGPSVFLFPPKPKDTLMISRTPEVTCVVVDVSHEDPEVKFNWYVDGVEVHNAKTKPREEQYNSTYRVVSVLTVLHQDWLNGKEYKCKVSNKALGAPIEKTISKAKGQPREPQVCTLPPSRDELTKNQVSLSCAVKGFYPSDIAVEWESNGQPENNYKTTPPVLDSDGSFFLVSKLTVDKSRWQQGNVFSCSVMHEALHNHYTQKSLSLSP
chain 2: not shown
chain 3: EVQLLESGGGLVQPGGSLRLSCAASGFTFSTYAMNWVRQAPGKGLEWVSRIRSKYNNYATYYADSVKGRFTISRDDSKNTLYLQMNSLRAEDTAVYYCVRHGNFGNSYVSWFAYWGQGTLVTVSSASVAAPSVFIFPPSDEQLKSGTASVVCLLNNFYPREAKVQWKVDNALQSGNSQESVTEQDSKDSTYSLSSTLTLSKADYEKHKVYACEVTHQGLSSPVTKSFNRGEC
chain 4: B1 chain 3 with E128R, Q129K
With B2, in experiment [3], the “T cell activation EC50 upon lysis of Z-138 cells, CD25/CD4” value is about 4.58 pM; the “T cell activation EC50 upon lysis of Z-138 cells, CD25/CD8” value is 2.87 pM; the “T cell activation EC50 upon lysis of Z-138 cells, CD69/CD4” value stood at 1.41 pM; the “T cell activation EC50 upon lysis of Z-138 cells, CD69/CD8” value was 1.37 pM. In experiment [3], the “T cell activation EC50 upon lysis of Z-138 cells, CD107/CD4” value is 2.34 pM and the “T cell activation EC50 upon lysis of Z-138 cells, CD107/CD8” value was found to be 2 pM. In experiment [4], the “Tumor cell lysis Z-138 cells (21 h), EC50” value amounted to 0.92 ng/mL and the “Tumor cell lysis Z-138 cells (21 h), EC50 (pM)” value is about 4.7 pM.

B3: Molecule F: 1+1 IgG CrossMab with charge modifications (VH/VL exchange in CD3 binder, charge modification in CD19 binder, parental murine CD19 binder 8B8) (bispecific antibody)
chain 1: B2 chain 1
chain 2: B2 chain 3
chain 3: B1 chain 3 with E128R, Q129K
chain 4: not shown
B3: in experiment [1], the “T cell activation EC50 upon lysis of Z-138 cells, CD25/CD4” value was 10 pM; the “T cell activation EC50 upon lysis of Z-138 cells, CD25/CD8” value came out at 6.5 pM; the “T cell activation EC50 upon lysis of Z-138 cells, CD69/CD4” value turned out to be 3.97 pM; the “T cell activation EC50 upon lysis of Z-138 cells, CD69/CD8” value is 2.59 pM. Also, in experiment [1], the “T cell activation EC50 upon lysis of Z-138 cells, CD107/CD4” value was determined as 7.54 pM and the “T cell activation EC50 upon lysis of Z-138 cells, CD107/CD8” value was determined as 4.02 pM. Further, in experiment [2], the “Tumor cell lysis Z-138 cells (21 h), EC50” value was 7.85 ng/mL and the “Tumor cell lysis Z-138 cells (21 h), EC50 (pM)” value is 53.7 pM.

B4: Molecule G: 2+1 IgG CrossFab, inverted, with charge modifications (VH/VL exchange in CD19 binder, charge modification in CD3 binder, parental murine CD19 … (bispecific antibody)
chain 1: DAVMTQTPLSLPVSLGDQASISCRSSQSLENSNGNTYLNWYLQKPGQSPQLLIYRVSKRFSGVLDRFSGSGSGTDFTLKISRVEAEDLGVYFCLQLTHVPYTFGGGTKLEIKSSASTKGPSVFPLAPSSKSTSGGTAALGCLVKDYFPEPVTVSWNSGALTSGVHTFPAVLQSSGLYSLSSVVTVPSSSLGTQTYICNVNHKPSNTKVDKKVEPKSCDKTHTCPPCPAPEAAGGPSVFLFPPKPKDTLMISRTPEVTCVVVDVSHEDPEVKFNWYVDGVEVHNAKTKPREEQYNSTYRVVSVLTVLHQDWLNGKEYKCKVSNKALGAPIEKTISKAKGQPREPQVCTLPPSRDELTKNQVSLSCAVKGFYPSDIAVEWESNGQPENNYKTTPPVLDSDGSFFLVSKLTVDKSRWQQGNVFSCSVMHEALHNHYTQKSLSLSP
chain 2: not shown
chain 3: EVQLQQSGPELVKPGASVKMACKASGYTFTDYIMHWVKQKTGQGLEWIGYINPYNDGSKYTEKFNGKATLTSDKSSITAYMELSSLTSEDSAVYYCARGTYYYGSALFDYWGQGTTLTVSSASVAAPSVFIFPPSDEQLKSGTASVVCLLNNFYPREAKVQWKVDNALQSGNSQESVTEQDSKDSTYSLSSTLTLSKADYEKHKVYACEVTHQGLSSPVTKSFNRGEC
chain 4: QAVVTQEPSLTVSPGGTVTLTCGSSTGAVTTSNYANWVQEKPGQAFRGLIGGTNKRAPGTPARFSGSLLGGKAALTLSGAQPEDEAEYYCALWYSNLWVFGGGTKLTVLGQPKAAPSVTLFPPSSKKLQANKATLVCLISDFYPGAVTVAWKADSSPVKAGVETTTPSKQSNNKYAASSYLSLTPEQWKSHRSYSCQVTHEGSTVEKTVAPTECS
For B4, in experiment [3], the “T cell activation EC50 upon lysis of Z-138 cells, CD25/CD4” value came out at 1.85 pM; the “T cell activation EC50 upon lysis of Z-138 cells, CD25/CD8” value was determined as 1.53 pM; the “T cell activation EC50 upon lysis of Z-138 cells, CD69/CD4” value is about 0.75 pM; the “T cell activation EC50 upon lysis of Z-138 cells, CD69/CD8” value came out at 0.7 pM. In addition, in experiment [3], the “T cell activation EC50 upon lysis of Z-138 cells, CD107/CD4” value worked out at 1.14 pM and the “T cell activation EC50 upon lysis of Z-138 cells, CD107/CD8” value came to 1.13 pM. In addition, in experiment [4], the “Tumor cell lysis Z-138 cells (21 h), EC50” value was determined as 0.57 ng/mL and the “Tumor cell lysis Z-138 cells (21 h), EC50 (pM)” value is 2.93 pM.

B5: CD19_IgG_10C1 (antibody, V domains shown)
VH: EVQLQQSGPELVKPGASVKMSCKASGYTFTSYVMHWVKQKPGQGLEWIGYINPYNDGTKFNEKFKGKATLTSDKSSSTAYMELSSLTSEDSAVYYCTRGVYYYGSSQGDYWGQGTTLTVSS
VL: DAVMTQTPLSLPVSLGDQASISCRSSQSLENSNGNTYLNWYLQKPGQSPQLLIYRISNRFSGVPDRFNGSGSGTDFTLKISRVEAEDLGVYFCLQVTHVPWTFGGGTKLEIK
notes: also called CD19 IgG (clone 10C1); 10C1 as IgG
By EC50 is commonly meant the midpoint of the concentration-response curve. Read a low EC50 as higher potency in that assay. Consider B5, for which the EC50 in experiment [5] is 5.2 nM and 0.763 µg/mL.
